# Measurements from US20250388669A1 (published 2025).
# Substitutions are numbered along the chain they refer to.
# T1: CD19 (UniProt P15391 20-556, limits assumed)
# T1 construct: whole, on cells
# T1 sequence (looked up): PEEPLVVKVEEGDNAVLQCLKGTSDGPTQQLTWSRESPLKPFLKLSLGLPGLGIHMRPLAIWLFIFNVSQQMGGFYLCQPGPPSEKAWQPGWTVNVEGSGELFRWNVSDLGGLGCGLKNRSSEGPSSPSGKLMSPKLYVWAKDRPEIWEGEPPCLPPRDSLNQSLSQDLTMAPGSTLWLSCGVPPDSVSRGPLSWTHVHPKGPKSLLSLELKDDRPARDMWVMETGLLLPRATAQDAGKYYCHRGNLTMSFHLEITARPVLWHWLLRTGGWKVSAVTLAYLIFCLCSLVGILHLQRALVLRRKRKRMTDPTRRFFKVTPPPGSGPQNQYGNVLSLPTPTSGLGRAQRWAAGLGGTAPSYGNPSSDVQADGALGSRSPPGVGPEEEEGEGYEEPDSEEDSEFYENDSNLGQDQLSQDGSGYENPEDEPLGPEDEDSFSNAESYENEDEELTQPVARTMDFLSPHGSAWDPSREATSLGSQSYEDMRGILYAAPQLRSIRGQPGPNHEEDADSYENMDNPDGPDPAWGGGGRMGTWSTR
# T2: B7H3 (UniProt Q5ZPR3 29-466, limits assumed)
# T2 sequence (looked up): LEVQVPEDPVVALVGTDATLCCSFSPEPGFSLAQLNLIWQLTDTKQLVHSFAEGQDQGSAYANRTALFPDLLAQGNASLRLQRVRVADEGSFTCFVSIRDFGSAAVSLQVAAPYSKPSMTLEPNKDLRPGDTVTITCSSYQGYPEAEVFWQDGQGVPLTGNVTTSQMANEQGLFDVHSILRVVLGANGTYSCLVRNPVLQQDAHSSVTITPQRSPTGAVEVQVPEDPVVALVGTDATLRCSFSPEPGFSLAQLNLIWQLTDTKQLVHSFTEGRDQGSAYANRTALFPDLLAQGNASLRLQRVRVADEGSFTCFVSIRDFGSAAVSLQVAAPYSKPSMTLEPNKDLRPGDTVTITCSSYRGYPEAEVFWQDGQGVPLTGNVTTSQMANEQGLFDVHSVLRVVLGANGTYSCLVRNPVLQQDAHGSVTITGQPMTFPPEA
# B1: Ly1966 (other)
# chain 1: QVQLQQSGAELVRPGSSVKISCKASGYAFSSYWMNWVKQRPGQGLEWIGQIWPGDGDTNYNGKFKGKATLTADESSSTAYMQLSSLASEDSAVYFCARRETTTVGRYYYAMDYWGQGTTVTVSSASTKGPSVFPLAPSSKSTSGGTAALGCLVKDYFPEPVTVSWNSGALTSGVHTFPAVLQSSGLYSLSSVVTVPSSSLGTQTYICNVNHKPSNTKVDKKVEPKSCGGGGSGGGGSGGGGSGGGGSEVQLVESGGGLVQPGGSLRLSCAASGFTFSTYAMNWVRQAPGKGLEWVGRIRSKYNNYATYYADSVKGRFTISRDDSKNSLYLQMNSLKTEDTAVYYCVRHGNFGNSYVSWFAYWGQGTLVTVSSGGGGSDKTHTCPPCPAPEAAGPSVFLFPPKPKDTLMISRTPEVTCVVVDVSHEDPEVKFNWYVDGVEVHNAKTKPREEQYNSTYRVVSVLTVLHQDWLNGKEYKCKVSNKALPAPIEKTISKAKGQPREPQVYTLPPSREEMTKNQVSLWCLVKGFYPSDIAVEWESNGQPENNYKTTPPVLDSDGSFFLYSKLTVDKSRWQQGNVFSCSVMHEALHNHYTQKSLSLSPGGGGGSGGGGSGGGGSGGGGSQVQLVQSGAEVKKPGASVKVSCKASGYTFAGFEMHWVRQAPGQGLEWMGAIDPKTGGTDYNQKFKDRVTMTRDTSISTAYMELSRLRSDDTAVYYCARDLGYFDVWGQGTLVTVSS
# chain 2: QVQLQQSGAELVRPGSSVKISCKASGYAFSSYWMNWVKQRPGQGLEWIGQIWPGDGDTNYNGKFKGKATLTADESSSTAYMQLSSLASEDSAVYFCARRETTTVGRYYYAMDYWGQGTTVTVSSASTKGPSVFPLAPSSKSTSGGTAALGCLVKDYFPEPVTVSWNSGALTSGVHTFPAVLQSSGLYSLSSVVTVPSSSLGTQTYICNVNHKPSNTKVDKKVEPKSCGGGGSGGGGSGGGGSGGGGSQAVVTQEPSLTVSPGGTVTLTCRSSTGAVTTSNYANWVQQKPGQAPRGLIGGTNKRAPWTPARFSGSLLGGKAALTITGAQAEDEADYYCALWYSNLWVFGGGTKLTVLGGGGSDKTHTCPPCPAPEAAGPSVFLFPPKPKDTLMISRTPEVTCVVVDVSHEDPEVKFNWYVDGVEVHNAKTKPREEQYNSTYRVVSVLTVLHQDWLNGKEYKCKVSNKALPAPIEKTISKAKGQPREPQVYTLPPSREEMTKNQVSLSCAVKGFYPSDIAVEWESNGQPENNYKTTPPVLDSDGSFFLVSKLTVDKSRWQQGNVFSCSVMHEALHNRFTQKSLSLSPGGGGGSGGGGSGGGGSGGGGSDIQMTQSPSSLSASVGDRVTITCRASQDIRSNLNWYQQKPGGAVKLLIYYTSRLHSGVPSRFSGSGSGTDYTLTISSLQPEDFATYFCQQSEKLPRTFGGGTKVEIR
# light: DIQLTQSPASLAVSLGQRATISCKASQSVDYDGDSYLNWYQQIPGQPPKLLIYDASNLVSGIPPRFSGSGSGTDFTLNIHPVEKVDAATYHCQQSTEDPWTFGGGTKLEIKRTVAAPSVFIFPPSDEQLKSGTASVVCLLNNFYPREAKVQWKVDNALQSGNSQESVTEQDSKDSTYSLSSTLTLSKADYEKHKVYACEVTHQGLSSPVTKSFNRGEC
# notes: Tri-specific antibody CD19 (two Fabs) / CD3 (central Fv) / CD137 (terminal Fv)
# B2: Ly1967 (other)
# chain 1: B1 chain 1
# chain 2: B1 chain 2 with R575H, F576Y
# light: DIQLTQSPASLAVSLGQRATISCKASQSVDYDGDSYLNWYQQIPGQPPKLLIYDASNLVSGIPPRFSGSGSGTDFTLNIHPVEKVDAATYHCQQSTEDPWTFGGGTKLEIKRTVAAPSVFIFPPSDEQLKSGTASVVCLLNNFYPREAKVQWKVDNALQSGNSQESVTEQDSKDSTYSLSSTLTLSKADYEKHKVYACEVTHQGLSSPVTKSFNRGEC
# notes: as for B1
# B3: Ly2405 (bispecific antibody, human IgG1, kappa)
# heavy 1: not shown
# heavy 2: QVTLKESGPALVKPTQTLTLTCTFSGFSLSTSGTCVSWIRQPPGKALEWLATICWEDSKGYNPSLKSRLTISKDTSKNQAVLTMTNMDPVDTATYYCARREDSGYFWFPYWGQGTLVTVSSASTKGPSVFPLAPSSKSTSGGTAALGCLVKDYFPEPVTVSWNSGALTSGVHTFPAVLQSSGLYSLSSVVTVPSSSLGTQTYICNVNHKPSNTKVDKKVEPKSCDKTHTCPPCPAPEAAGPSVFLFPPKPKDTLMISRTPEVTCVVVDVSHEDPEVKFNWYVDGVEVHNAKTKPREEQYNSTYRVVSVLTVLHQDWLNGKEYKCKVSNKALPAPIEKTISKAKGQPREPQVYTLPPSREEMTKNQVSLSCAVKGFYPSDIAVEWESNGQPENNYKTTPPVLDSDGSFFLVSKLTVDKSRWQQGNVFSCSVMHEALHNRFTQKSLSLSPGGGGGSGGGGSGGGGSGGGGSDIQMTQSPSSVSASVGDRVTITCRASQGIYSWLAWYQQKPGKAPNLLIYTASTLQSGVPSRFSGSGSGTDFTLTISSLQPEDFATYYCQQANIFPLTFGGGTKVEIK
# light: NIQMTQSPSSLSASVGDRVTITCKAGQNVNNYLAWYQQKPGKAPKVLIFNANSLQTGVPSRFSGSGSGTDFTLTISSLQPEDFATYYCQQYNSWPTFGGGTKVEIKRTVAAPSVFIFPPSDEQLKSGTASVVCLLNNFYPREAKVQWKVDNALQSGNSQESVTEQDSKDSTYSLSSTLTLSKADYEKHKVYACEVTHQGLSSPVTKSFNRGEC
# notes: PD-1 Fabs (Ly516) x terminal CD40 Fv (TM383)
# B4: Ly2326 (bispecific antibody, human IgG1, kappa)
# chain 1: QVQLQQSGAELVRPGSSVKISCKASGYAFSSYWMNWVKQRPGQGLEWIGQIWPGDGDTNYNGKFKGKATLTADESSSTAYMQLSSLASEDSAVYFCARRETTTVGRYYYAMDYWGQGTTVTVSSASTKGPSVFPLAPSSKSTSGGTAALGCLVKDYFPEPVTVSWNSGALTSGVHTFPAVLQSSGLYSLSSVVTVPSSSLGTQTYICNVNHKPSNTKVDKKVEPKSCDKTHTCPPCPAPEAAGPSVFLFPPKPKDTLMISRTPEVTCVVVDVSHEDPEVKFNWYVDGVEVHNAKTKPREEQYNSTYRVVSVLTVLHQDWLNGKEYKCKVSNKALPAPIEKTISKAKGQPREPQVYTLPPSREEMTKNQVSLWCLVKGFYPSDIAVEWESNGQPENNYKTTPPVLDSDGSFFLYSKLTVDKSRWQQGNVFSCSVMHEALHNHYTQKSLSLSPGGGGGSGGGGSGGGGSGGGGSQVQLVQSGAEVKKPGASVKVSCKASGYTFAGFEMHWVRQAPGQGLEWMGAIDPKTGGTDYNQKFKDRVTMTRDTSISTAYMELSRLRSDDTAVYYCARDLGYFDVWGQGTLVTVSS
# chain 2: QVQLQQSGAELVRPGSSVKISCKASGYAFSSYWMNWVKQRPGQGLEWIGQIWPGDGDTNYNGKFKGKATLTADESSSTAYMQLSSLASEDSAVYFCARRETTTVGRYYYAMDYWGQGTTVTVSSASTKGPSVFPLAPSSKSTSGGTAALGCLVKDYFPEPVTVSWNSGALTSGVHTFPAVLQSSGLYSLSSVVTVPSSSLGTQTYICNVNHKPSNTKVDKKVEPKSCDKTHTCPPCPAPEAAGPSVFLFPPKPKDTLMISRTPEVTCVVVDVSHEDPEVKFNWYVDGVEVHNAKTKPREEQYNSTYRVVSVLTVLHQDWLNGKEYKCKVSNKALPAPIEKTISKAKGQPREPQVYTLPPSREEMTKNQVSLSCAVKGFYPSDIAVEWESNGQPENNYKTTPPVLDSDGSFFLVSKLTVDKSRWQQGNVFSCSVMHEALHNRFTQKSLSLSPGGGGGSGGGGSGGGGSGGGGSDIQMTQSPSSLSASVGDRVTITCRASQDIRSNLNWYQQKPGGAVKLLIYYTSRLHSGVPSRFSGSGSGTDYTLTISSLQPEDFATYFCQQSEKLPRTFGGGTKVEIR
# light: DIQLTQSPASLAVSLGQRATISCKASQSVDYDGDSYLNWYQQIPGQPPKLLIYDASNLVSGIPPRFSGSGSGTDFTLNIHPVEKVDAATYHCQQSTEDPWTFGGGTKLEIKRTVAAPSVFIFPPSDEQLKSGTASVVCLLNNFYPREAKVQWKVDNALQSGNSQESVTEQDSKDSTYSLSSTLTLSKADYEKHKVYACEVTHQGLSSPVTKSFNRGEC
# notes: Bispecific CD19 (two Fabs) / CD137 (terminal Fv)
# B5: Ly1965 (bispecific antibody)
# chain 1: QVQLVQSGAEVKKPGASVKVSCKASGYTFTSYVMHWVRQKPGQGLEWIGYINPYNEGTESTDKFKGRATMTSDKSTSTVYMELSSLRSEDTAVYYCASIYYGYEGTYFGVWGQGTLVTVSSASTKGPSVFPLAPSSKSTSGGTAALGCLVKDYFPEPVTVSWNSGALTSGVHTFPAVLQSSGLYSLSSVVTVPSSSLGTQTYICNVNHKPSNTKVDKKVEPKSCGGGGSGGGGSGGGGSGGGGSEVQLVESGGGLVQPGGSLRLSCAASGFTFSTYAMNWVRQAPGKGLEWVGRIRSKYNNYATYYADSVKGRFTISRDDSKNSLYLQMNSLKTEDTAVYYCVRHGNFGNSYVSWFAYWGQGTLVTVSSGGGGSDKTHTCPPCPAPEAAGPSVFLFPPKPKDTLMISRTPEVTCVVVDVSHEDPEVKFNWYVDGVEVHNAKTKPREEQYNSTYRVVSVLTVLHQDWLNGKEYKCKVSNKALPAPIEKTISKAKGQPREPQVYTLPPSREEMTKNQVSLWCLVKGFYPSDIAVEWESNGQPENNYKTTPPVLDSDGSFFLYSKLTVDKSRWQQGNVFSCSVMHEALHNHYTQKSLSLSPG
# chain 2: QVQLVQSGAEVKKPGASVKVSCKASGYTFTSYVMHWVRQKPGQGLEWIGYINPYNEGTESTDKFKGRATMTSDKSTSTVYMELSSLRSEDTAVYYCASIYYGYEGTYFGVWGQGTLVTVSSASTKGPSVFPLAPSSKSTSGGTAALGCLVKDYFPEPVTVSWNSGALTSGVHTFPAVLQSSGLYSLSSVVTVPSSSLGTQTYICNVNHKPSNTKVDKKVEPKSCGGGGSGGGGSGGGGSGGGGSQAVVTQEPSLTVSPGGTVTLTCRSSTGAVTTSNYANWVQQKPGQAPRGLIGGTNKRAPWTPARFSGSLLGGKAALTITGAQAEDEADYYCALWYSNLWVFGGGTKLTVLGGGGSDKTHTCPPCPAPEAAGPSVFLFPPKPKDTLMISRTPEVTCVVVDVSHEDPEVKFNWYVDGVEVHNAKTKPREEQYNSTYRVVSVLTVLHQDWLNGKEYKCKVSNKALPAPIEKTISKAKGQPREPQVYTLPPSREEMTKNQVSLSCAVKGFYPSDIAVEWESNGQPENNYKTTPPVLDSDGSFFLVSKLTVDKSRWQQGNVFSCSVMHEALHNRFTQKSLSLSPG
# light: EIVLTQSPATLSLSPGERATLSCRASSSVSYMHWYQQKPGQAPRPWIYATSNLASGIPARFSGSRSGTDYTLTISSLEPEDFAVYYCQQWSSNTLTFGGGTKVEIKRTVAAPSVFIFPPSDEQLKSGTASVVCLLNNFYPREAKVQWKVDNALQSGNSQESVTEQDSKDSTYSLSSTLTLSKADYEKHKVYACEVTHQGLSSPVTKSFNRGEC
# notes: Bispecific B7H3 (two Fabs) / CD3 (central Fv)
# Assays:
# [1] = target: T3, CD137 (UniProt Q07011 24-186, limits assumed); assay: FCM or ELISA (graded summary table)
# T3 construct: also called 4-1BB
# [2] = target: PD-1 (binding assay) (UniProt Q15116 25-167, limits assumed); assay: FCM or ELISA, graded
# [3] = target: CD40 (UniProt P25942 21-193, limits assumed); assay: FCM or ELISA, graded
# [4] = target: T1, CD19; assay: FCM or ELISA (graded summary table)
# [5] = target: T2, B7H3; assay: FCM or ELISA (graded summary table)
# Sequence of PD-1 (binding assay) (Q15116 25-167 limits assumed): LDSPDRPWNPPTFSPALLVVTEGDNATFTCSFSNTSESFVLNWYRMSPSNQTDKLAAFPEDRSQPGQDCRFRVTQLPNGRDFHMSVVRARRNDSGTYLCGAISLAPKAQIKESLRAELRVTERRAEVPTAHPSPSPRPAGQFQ
# Sequence of CD40 (P25942 21-193 limits assumed): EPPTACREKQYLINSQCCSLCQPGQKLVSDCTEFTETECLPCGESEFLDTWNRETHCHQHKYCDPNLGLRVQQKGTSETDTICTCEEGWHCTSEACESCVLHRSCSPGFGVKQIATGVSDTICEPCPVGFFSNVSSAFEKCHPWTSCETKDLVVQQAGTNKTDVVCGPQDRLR
binder,measurement,setting,value
B1,binding result,[1],binds
B2,binding result,[1],binds
B3,binding result,[2],binds
same,binding result,[3],binds
B4,binding result,[4],binds
same,binding result,[1],binds
B5,binding result,[5],binds
